Assay results reported in article PMC3438448.

Key:
axonemal microtubules = assay: single-molecule microtubule release assay (TIRF); as a6, perfused with 5 mM ATP in the presence of 800 nM Lis1; durations of attachment fitted by a one-phase exponential decay
[1] = biological target: microtubules (taxol-stabilized, α/β-tubulin) (UniProt P02554)
Sequence of microtubules (taxol-stabilized, α/β-tubulin) (chain, as listed by the source, chain 1 of 2): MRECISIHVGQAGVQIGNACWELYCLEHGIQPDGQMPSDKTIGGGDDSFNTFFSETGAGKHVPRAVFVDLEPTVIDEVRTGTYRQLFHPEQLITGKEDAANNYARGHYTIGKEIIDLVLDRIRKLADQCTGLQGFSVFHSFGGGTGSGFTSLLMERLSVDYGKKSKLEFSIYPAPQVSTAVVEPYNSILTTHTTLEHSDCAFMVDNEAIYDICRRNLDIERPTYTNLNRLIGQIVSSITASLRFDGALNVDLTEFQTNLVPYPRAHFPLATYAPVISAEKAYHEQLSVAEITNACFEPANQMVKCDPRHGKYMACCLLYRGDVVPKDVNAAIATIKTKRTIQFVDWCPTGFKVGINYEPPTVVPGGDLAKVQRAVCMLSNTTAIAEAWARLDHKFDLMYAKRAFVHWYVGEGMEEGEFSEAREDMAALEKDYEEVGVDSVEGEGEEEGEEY
Sequence of microtubules (taxol-stabilized, α/β-tubulin) (P02554 whole entry, chain 2 of 2): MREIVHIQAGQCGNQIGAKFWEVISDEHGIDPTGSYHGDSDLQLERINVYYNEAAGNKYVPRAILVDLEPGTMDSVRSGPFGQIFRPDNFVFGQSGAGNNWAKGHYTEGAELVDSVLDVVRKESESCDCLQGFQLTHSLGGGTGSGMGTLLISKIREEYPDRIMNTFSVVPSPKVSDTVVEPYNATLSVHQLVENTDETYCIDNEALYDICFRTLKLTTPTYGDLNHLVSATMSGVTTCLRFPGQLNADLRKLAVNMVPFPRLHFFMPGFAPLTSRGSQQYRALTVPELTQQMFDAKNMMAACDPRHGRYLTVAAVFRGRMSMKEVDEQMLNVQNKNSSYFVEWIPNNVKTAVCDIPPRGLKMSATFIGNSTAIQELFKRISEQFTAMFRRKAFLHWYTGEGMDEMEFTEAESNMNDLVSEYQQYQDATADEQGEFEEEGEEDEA

Substance | off-rate (decay constant) of microtubule attachments after ATP addition, with 800 nM Lis1 and 5 mM ATP (axonemal microtubules) [s⁻¹] | off-rate (decay constant) of rebinding events, with Lis1 and ATP (axonemal microtubules) [s⁻¹] | Km(MT) of the microtubule-stimulated ATPase activity, with 140 nM Lis1 [1] [µM] | Km(MT) of the microtubule-stimulated ATPase activity, without Lis1 [1] [µM]
monomeric dynein_(331 kDa) (domain or fragment) | 0.162 | 0.23 |  | 
GST-dynein_(331 kDa), P36022 1-4092 |  |  | 0.2 | 0.09
